According to patent US20240209061A1, “FUSION PROTEINS AND USES THEREOF” (Pfizer Inc., priority 2020, published 2024):
Each block holds one compound with its values, some of them ahead of it.

Key:
[1] = tested on: EMT6 murine breast cancer cells; test: EMT6 breast cancer model, combination with talazoparib; type: in vivo, mouse
Description: EMT6murine breast cancer cells (3×10^5) were orthotopically implanted in the mammary fat pad of female Balb/c mice. When tumors reached ˜90 mm^3 (day 5 after implantation), mice were randomized and dosed with PBS vehicle control, CD80-K89Q-D90Q-E23C-A26C-Fc (0.1 or 1 mg/kg), and/or 0.33 mg/kg talazoparib (Tala). CD80-D90Q-Fc was dosed on Days 0 and 3, talazoparib was dosed daily. Tumor volume was determined by caliper measurements obtained in 2 dimensions and calculated as width^2×length/2. Error bars are depicted as ±SEM

[2] = tested on: NY-ESO1-TCR+ Jurkat reporter cells; test: Jurkat-NYESO1-IL-2-Luc and A375-CD64 co-stimulation assay; type: cell-based, human
Excerpt: Jurkat-IL-2-Luc reporter cells (Promega, Product #J1631) were engineered with T cell receptor, TCR (Wargo J. Cancer Immunol Immunother 2009; Zhao Y. J Immunol 2005, Li Y, Nat Biotechnol 2005) against HLA-A2 restricted NY-ESO1 (SLLMWITQC-SEQ ID NO: 19) epitope using lentiviral transduction system. Human melanoma cells A375, which express human HLA-A*0201, were transduced with lentiviral vector containing endogenous codon for NY-ESO1 gene (Refseq accession NM_001327.2, CCDS14758.1). Upon expression, the construct underwent proteolytic cleavage at the ubiquitin/epitope junction, thus generating free, cytoplasmic epitope, which can be translocated into the endoplasmic reticulum and loaded onto class I HLA. A375-NY-ESO1 positive cells were treated with IFNγ to induce HLA expression and NY-ESO1 antigen presentation. The HLA expression and the antigen presentation was confirmed by Western Blot. The NY-ESO1^+-A375 cells were further engineered to express human FCγRI (CD64, GenBank:AAA58414.1, RefSeq:P12314.1) for cell surface assembly and displaying of CD80-Fc fusion proteins. The expression of FCγRI was confirmed by flow cytometry analysis.
A 96 well culture plate was seeded with NY-ESO1^+-A375 cells or NY-ESO1^+/FCγRI^+-A375 at 40,000 cells per well in 100 µL growth media (RPMI, 10% Heat Inactivated FBS, 200 μg/mL Hygromycin B, 1 mM sodium pyruvate, 0.1 mM MEM NEAA, 1 μg/mL puromycin) containing 10 ng/ml of human IFNγ (R&D Systems, product #285-IF) to induce MHC-A2 expression and grown overnight at 37° C. in CO2 incubator. To each well, NY-ESO1-TCR^+ Jurkat reporter cells, 100,000 (in 20 μL media), were added. 20 μL of serial dilutions of variant CD80-Fc fusion proteins with concentrations ranging from 0-1000 ng/ml (final concentrations per well) was added with appropriate controls. Assay plates were incubated for 6 hours at 37° C. in CO2 incubator. Following equilibration, 80 μL BioGlo luminescence reagent (BioGlo Luciferase assay kit, Promega, G7940) was added into each well. Plates were incubated for 5 minutes before reading luminescence on the EnSight™ plate reader (PerkinElmer).

[3] = target: T1, recombinant soluble CD28 (Homo sapiens, UniProt P10747); test: ELISA binding to recombinant soluble CD28; conditions: standard ELISA, FIG. 2A
T1 construct: Recombinant soluble CD28 and CTLA-4 proteins (from Creative BioMart, Product #CD28-3910H, CTLA-4-2232H) were immobilized; purchased Creative BioMart CD28-3910H
Description: Binding affinity of purified CD80-Fc fusion proteins (WT and variant) to recombinant soluble CD28 and CTLA-4 proteins was determined by standard ELISA. Recombinant soluble CD28 and CTLA-4 proteins (from Creative BioMart, Product #CD28-3910H, CTLA-4-2232H) were immobilized on 96 well microtiter plate (Thermo Scientific, Product #436110) in bicarbonate buffer at 4° C. overnight. After washing with 1×PBS containing 0.05% Tween 20 (wash buffer) plates were incubated with blocking buffer, 5% BSA in PBS, for 1 hour at room temperature. A serial dilution of CD80-Fc fusion proteins and human IgG1 isotype control antibody was prepared in blocking buffer, added into the plate and incubated at room temperature for 1 hour. Following washing 3× with wash buffer, 1:4000 dilution of HRP conjugated secondary anti-human IgG1 antibody (R&D Systems, MAB110-100) was added into the plate and incubated at room temperature for 1 hour. Plates were washed 3× with wash buffer and a 100 μl of LumiGlo (SeraCare, Product #5430-0040) reagent added into each well, incubated for 5 minutes at room temperature before reading luminescence signal in EnSight™ plate reader (PerkinElmer).

[4] = tested on: Jurkat-IL-2-Luc reporter cells; test: Jurkat-IL-2-Luc and HCT116-CD64 reporter co-stimulation assay; type: cell-based, human
Excerpt: A T cell co-stimulation assay was designed based on T Cell Activation Bioassay (IL-2) Kit from Promega (Product #J1631). The assay consisted of a genetically engineered Jurkat T cell line that expresses luciferase reporter driven by an IL-2 promoter. Co-engagement of T cell antigen receptor (TCR/CD3) and CD28 co-stimulatory receptor induces activation of T cells and downstream intracellular signaling pathways that in turn regulate the expression of luciferase reporter. As described above, HCT116 human colon cancer cell line was used for TCR engagement using the CDH3×CD3 bispecific and genetically engineered by lentiviral transduction to express human FCγRI.
A 96 well culture plate was seeded with HCT116 parental or HCT116-CD64 cells at 40,000 cells per well in 100 μL RPMI with 10% HI FBS and grown overnight at 37° C. in CO2 incubator. To each well, Jurkat reporter cells (100,000 per well) and 10 μL of the CDH3×CD3 bispecific (8 ng/ml final concentration) were added. 10 μL of serial dilutions of variant CD80-Fc fusion proteins with concentrations ranging from 0-1000 ng/ml (final concentrations per well) was added with appropriate controls. Assay plates were incubated for 6 hours at 37° C. in CO2 incubator for before harvesting culture supernatants and transferring to new plates. Following equilibration, 80 μL of BioGlo luminescence reagent (BioGlo Luciferase assay kit, Promega, G7940) was added into each well. Plates were incubated for 5 minutes before reading luminescence on the EnSight™ plate reader (PerkinElmer).
Jurkat is an immortalized human T cell line, and the Jurkat IL-2-reporter assay assesses the CD28-mediated signaling resulting in activation of the IL-2 promoter. The activity of CD80-Fc fusion proteins was measured using the co-culture HCT116-CD64-Jurkat IL-2 reporter assay, as described in Example 2, but using 20 ng/ml CDH3×CD3 bispecific.

[5] = target: CD28 expressed on Jurkat T cell line / human T cells (human) (UniProt P10747); test: cell-based or functional assay
[6] = Thermal stability by Differential Scanning calorimetry (DSC); type: physicochemical; conditions: PBS
Description: There is a correlation between the thermal stability of a protein with the overall stability of the protein. Enhanced thermal stability often provides improved manufacturability and longer shelf life/stability. Thermal stability of variant CD80-Fc fusion proteins was assessed by Differential Scanning calorimetry (DSC). Variant CD80-Fc fusion proteins were analyzed using a MicroCal VP-DSC instrument. […] Tables 8-10 show the first thermal transition temperature (Tm1) of CD80-Fc fusion proteins and the enhanced thermal stability of variant CD80-Fc fusion proteins compared to CD80-WT-Fc fusion proteins.

[7] = AC-SINS self-interaction assay; type: physicochemical; conditions: Table 6
Description: Variant CD80-Fc fusion proteins were assessed by measuring non-specific binding using a DNA- and insulin-binding ELISA (Avery et al., MAbs. 2018 February/March; 10(2): 244-255) and for self-interaction in an AC-SINS assay (affinity-capture self-interaction nanoparticle spectroscopy; Liu et al., 2014, mAbs 6:483-92). DNA- and insulin-binding scores were calculated as the signal ratio of the ELISA signal of the CD80-Fc fusion protein at 10 μg/ml to the ELISA signal in the absence of the Fc-fusion protein (buffer only). For the AC-SINS assay, proteins are captured by anti-human Fc antibodies coated on gold nanoparticles. […] The score ranges obtained from these in vitro assays correlate well with in vivo clearance using huFcRn transgenic (Tg32) mouse. Therapeutic proteins with high scores are at high risk for rapid clearance and unfavorable PK and therapeutics that score low are at low risk and favorable PK.

[8] = tested on: human peripheral blood mononuclear cells (PBMCs); test: Human PBMC IL-2 production assay with plate-bound anti-CD3; type: cell-based; conditions: Donor 418; 0.3 ug/ml anti-CD3
Description: The ability of the variant CD80-Fc fusion proteins to promote IL-2 production in the context of anti-CD3 (to stimulate T cell receptor signaling) in human peripheral blood mononuclear cells (PBMCs) was tested. To bind anti-CD3 antibody on the plate, the anti-human-CD3 (clone HIT3a, BD Pharmingen) was incubated in 96-well plates at 4° C. overnight at 1 μg/ml unless otherwise noted. Human PBMCs were isolated from freshly collected human whole blood using Ficoll-Paque Plus. Human PBMCs (100,000 per well) were incubated with plate-bound anti-CD3 and the indicated concentrations of soluble CD80-Fc fusion protein in RPMI+10% HI-FBS, pen/strep, sodium pyruvate and non-essential amino acids. After 48 hours incubation, supernatants were collected and IL-2 measured by the Quantikine human IL-2 ELISA kit from R&D.
Additional CD80-Fc fusion proteins were tested in the same PBMC assay, at the concentration of anti-human-CD3 (clone HIT3a, BD Pharmingen) noted.

Compound: Cn1ncnc1[C@H]1c2n[nH]c(=O)c3cc(F)cc(c23)N[C@@H]1c1ccc(F)cc1 [Talazoparib, (8S,9R)-5-fluoro-8-(4-fluorophenyl)-9-(1-methyl-1H-1,2,4-triazol-5-yl)-8,9-dihydro-2H-pyrido[4,3,2-de]phthalazin-3(7H)-one, reference compound]
% tumor growth inhibition ([1]; Day 20, Talazoparib 0.33 mg/kg alone): 10.9% | Day 20 tumor volume ([1]; Talazoparib 0.33 mg/kg daily alone): 1750.1 mm^3

binding affinity to CD28 compared to WT CD80-Fc [3]: increased binding affinity to CD28
Compound: CD80-D90K-Fc: variant CD80 ECD (D90K) fused to human IgG1 Fc
enhanced co-stimulation compared to CD80-WT-Fc [2]: about 4 fold | enhanced co-stimulation compared to CD80-WT-Fc [4]: ~8 fold

Compound: CD80-D90N-Fc: variant CD80 ECD (D90N) fused to human IgG1 Fc
enhanced co-stimulation compared to CD80-WT-Fc [2]: about 4 fold

IL-2 EC50, human PBMC assay with plate-bound anti-CD3 (average of 5 donors) [5]: 24.2 nM
Compound: CD80-D90Q-E23C-A26C-Fc (Fc fusion)

binding affinity to CD28 compared to WT CD80-Fc [3]: increased binding affinity to CD28
Compound: CD80-K89D-D90K-Fc: variant CD80 ECD (K89D, D90K) fused to human IgG1 Fc
enhanced co-stimulation compared to CD80-WT-Fc [4]: ~8 fold

binding affinity to CD28 compared to WT CD80-Fc [3]: increased binding affinity to CD28
Compound: CD80-K89D-D90N-Fc: variant CD80 ECD (K89D, D90N) fused to human IgG1 Fc
enhanced co-stimulation compared to CD80-WT-Fc [2]: about 8 fold | enhanced co-stimulation compared to CD80-WT-Fc [4]: about 4 fold

binding affinity to CD28 compared to WT CD80-Fc [3]: increased binding affinity to CD28
Compound: CD80-K89D-D90Q-Fc: variant CD80 ECD (K89D, D90Q) fused to human IgG1 Fc
enhanced co-stimulation compared to CD80-WT-Fc [2]: about 8 fold | enhanced co-stimulation compared to CD80-WT-Fc [4]: about 4 fold

binding affinity to CD28 compared to WT CD80-Fc [3]: increased binding affinity to CD28
Compound: CD80-K89D-Fc: variant CD80 ECD (K89D) fused to human IgG1 Fc

Compound: CD80-K89Q-D90Q-161C-Fc: disulfide stabilized variant CD80-Fc fusion protein (K89Q, D90Q, I61C)
DSC Tm1 [6]: 64.10 ± 0.17 °C | AC-SINS Score [7]: −1

Compound: CD80-K89Q-D90Q-V22C-G45C-Fc: disulfide stabilized variant CD80-Fc fusion protein (K89Q, D90Q, V22C, G45C)
DSC Tm1 [6]: 68.67 ± 0.22 °C | AC-SINS Score [7]: −1

binding affinity to CD28 compared to WT CD80-Fc [3]: increased binding affinity to CD28
Compound: CD80-K89Q-Fc: variant CD80 ECD (K89Q) fused to human IgG1 Fc

IL-2 EC50, human PBMC assay, donor 418, anti-CD3 0.3 ug/ml [5]: 2.64 nM
Compound: CD80-T28V-T57V-Fc (Fc fusion)

Compound: CD80-T28V-T57V-Fc: non-cysteine stabilized variant CD80-Fc fusion protein
DSC Tm1 [6]: 64 °C | EC50 [8]: 2.64 nM

IL-2 EC50, human PBMC assay, donor 418, anti-CD3 0.3 ug/ml [5]: 3.34 nM
Compound: CD80-V11L-T62Y-Fc (Fc fusion)

Compound: CD80-V11L-T62Y-Fc: non-cysteine stabilized variant CD80-Fc fusion protein
DSC Tm1 [6]: 58.76 ± 0.14 °C | EC50 [8]: 3.34 nM

IL-2 EC50, human PBMC assay, donor 418, anti-CD3 0.3 ug/ml [5]: 4.95 nM
Compound: CD80-V11L-V22F-Fc (Fc fusion)

Compound: CD80-V11L-V22F-Fc: non-cysteine stabilized variant CD80-Fc fusion protein
DSC Tm1 [6]: 61.52 ± 0.12 °C | EC50 [8]: 4.95 nM

IL-2 EC50, human PBMC assay, donor 418, anti-CD3 0.3 ug/ml [5]: 5.13 nM
Compound: CD80-V22F-T28V-T57V-Fc (Fc fusion)

Compound: CD80-V22F-T28V-T57V-Fc: non-cysteine stabilized variant CD80-Fc fusion protein
DSC Tm1 [6]: 64 °C | EC50 [8]: 5.13 nM
